In PMC10023570, “Essential protein P116 extracts cholesterol and other indispensable lipids for Mycoplasmas” (Nature Structural & Molecular Biology, 2023):

How the values were obtained:
[1] = target: P116 W681A (M. pneumoniae) (UniProt P75556); assay: SEC-MALS; Superose 6 10/300 GL column, DAWN HELEOS II MALS detector and Optilab T-REX refractive index detector
[2] = target: the molecule itself; assay: as above

Molecule	rate of dimers to monomers (dimers:monomers) [1]	stoichiometry N [2]
P116 W681A (from UniProt P75556 30-957) (domain or fragment)	0.25	–
P116 (30–957), ectodomain of P116 (MPN_213) from Mycoplasma pneumoniae (domain or fragment, source: E. coli B834 (DE3), purified (HisTrap, Superdex 200)) NKTHQVEHESEQSDFQDIRFGLNSVKLPKAQPAAATRITVENGTDKLVNYKSSPQQLFLAKNALKDKLQGEFDKFLSDAKAFPALTADLQEWVDQQLFNPNQSFFDLSAPRSNFTLSSDKKASLDFIFRFTNFTESVQLLKLPEGVSVVVDSKQSFDYYVNASAQKLLVLPLSLPDYTLGLNYMFDHITLNGKVVNKFSFNPFKTNLNLAFSNVYNGVDVFEAQKNLVGKGKYLNTHVKAEDVKKDVNANIKNQFDIAKIIAELMGKALKEFGNQQEGQPLSFLKVMDKVKEDFEKLFNLVRPGLGKFVKDLIQSSSQAENKITVYKLIFDNKKTILNLLKELSIPELNSSLGLVDVLFDGITDSDGLYERLQSFKDLIVPAVKTNEKTAALSPLIEELLTQKDTYVFDLIQKHKGILTNLLKNFLADFQKSTPFMADQVAIFTELFDNEGAFDLFGEADFVDKIAELFLTKRTVKNGEKIETKDSLLVTSLKSLLGEKVAALGDLLDSYIFKNELLNRSVEVAKAEAKDTKGATDYKKEQAKALKKLFKHIGENTLSKTNLDKITLKEVKNTENVELEETETTLKVKKLDVEYKVELGNFEIKNGLIKAMLEFLPDTKDLETTLDKLLFKGESYKAMKDKYIKEGFPGYGWAKGVVPGAFESIENTFKSAIDKTKSIRDLFGDMLFGNDLSSVKETDSFITLGGSFDIKYGGENLNVLPAYYSLINSEIGYQIIGVDTTIDATKVKVELKNKEYKGKSPAINGQVKLSQSFFNVWTNMFDSITKQIFQKKYEFKDNIQVFARNEDNTSRLELDISDPEQRVIPFAFVDGFGIQLKAVDKNITKEAGNTEPKSPVIQLYEALNKEKDQKQQSKQSPKQLDTKTQLGYLLKLGDNWSKDDYKSLIDDTIINNNYLEASFNSKITVDRLG	–	2
